Laboratory results from patent US20140057332A1, “GLUCO-OLIGOSACCHARIDE OXIDASES FROM ACREMONIUM STRICTUM AND USES THEREOF” (The Governing Council of the University of Toronto, priority 2011, published 2014).
Residue numbers refer to the chain shown, from its start. In names and notes the source's numbering stands.

Key:
[1] = Chromogenic H2O2 oxidase assay / kinetic analysis on xylose
Method: (§1) A chromogenic assay was used to measure hydrogen peroxide production (15). Reactions contained 0.1 mM 4aminoantipyrine (4AA), 1 mM phenol, 0.5 U horseradish peroxidase, 40 mM Tris-HCl (pH 8.0), and different substrates were initiated by adding 0.2 μg of enzymes to the 250 μL reaction mixture. The production of H2O2 was coupled to the oxidation of 4aminoantipyrine by horseradish peroxidase and detected at 500 nm. Reactions were incubated at 37° C. for 15 min to measure the specific activity of GOOX on 10 mM of monosaccharide or 1 mM of oligosaccharide.
(§2) At least 12 substrate concentrations were included to obtain kinetic parameters for each substrate. Initial rates were obtained by measuring reaction products every 30 s for 15 min at 37° C. and pH 8.0, and kinetic parameters were calculated using the Michaelis-Menten equation (GraphPad Prism5 Software).

[2] = Chromogenic H2O2 oxidase assay / kinetic analysis on xylotriose
Method: as §1, §2

[3] = Chromogenic H2O2 oxidase assay / kinetic analysis on cellobiose
Method: as §1, §2

[4] = Chromogenic H2O2 oxidase assay / kinetic analysis on glucose
Method: as §1, §2

[5] = Chromogenic H2O2 oxidase assay / kinetic analysis on xylobiose
Method: as §1, §2

[6] = Chromogenic H2O2 oxidase assay / kinetic analysis on NAG
Method: as §1, §2

[7] = Chromogenic H2O2 oxidase assay / kinetic analysis on cellotriose
Method: as §1, §2

[8] = substrate: OC[C@H]1OC(O)[C@H](O)[C@@H](O)[C@H]1O; test: purified protein, by the assay type; details: other: 37° C., pH 8.0
Method: as §1, §2

[9] = substrate: OC1OC[C@@H](O[C@@H]2OC[C@@H](O)[C@H](O)[C@H]2O)[C@H](O)[C@H]1O; test: purified protein, by the assay type; details: other: 37° C., pH 8.0
Method: as §1, §2

[10] = substrate: OC1OC[C@@H](O[C@@H]2OC[C@@H](O[C@@H]3OC[C@@H](O)[C@H](O)[C@H]3O)[C@H](O)[C@H]2O)[C@H](O)[C@H]1O; test: purified protein, by the assay type; details: other: 37° C., pH 8.0
Method: as §1, §2

[11] = substrate: OC[C@H]1OC(O)[C@H](O)[C@@H](O)[C@@H]1O; test: purified protein, by the assay type; details: other: 37° C., pH 8.0
Method: as §1, §2

[12] = substrate: OC[C@H]1O[C@@H](O[C@H]2[C@H](O)[C@@H](O)C(O)O[C@@H]2CO)[C@H](O)[C@@H](O)[C@@H]1O; test: purified protein, by the assay type; details: other: 37° C., pH 8.0
Method: as §1, §2

[13] = substrate: OC[C@H]1O[C@@H](O[C@H]2[C@H](O)[C@@H](O)[C@H](O[C@H]3[C@H](O)[C@@H](O)C(O)O[C@@H]3CO)O[C@@H]2CO)[C@H](O)[C@@H](O)[C@@H]1O; test: purified protein, by the assay type; details: other: 37° C., pH 8.0
Method: as §1, §2

[14] = substrate: OC[C@H]1O[C@H](O[C@H]2[C@H](O)[C@@H](O)C(O)O[C@@H]2CO)[C@H](O)[C@@H](O)[C@@H]1O; test: purified protein, by the assay type; details: other: 37° C., pH 8.0
Method: as §1, §2

[15] = Chromogenic H2O2 oxidase assay / kinetic analysis on maltose
Method: as §1, §2

[16] = Effect of deglycosylation with PNGaseF on enzyme activity; format: biochemical; details: 10 mM maltose, 15 min at 37° C., duplicate
Method: Approximately 2 μg of purified enzyme was treated with PNGaseF (New England Biolabs) using denaturing and native conditions. Samples that were deglycosylated using denaturing conditions were analysed by SDS PAGE, while samples deglycosylated using native conditions were used to evaluate the impact of glycosylation on enzyme activity. The activity of enzymes was measured on 10 mM maltose at 37° C. for 15 min. (Table 7). N-glycosylation was predicted by NetNGlyc (http://www.cbs.dtu.dk/services/NetNGlyc/) while O-glycosylation was predicted by OGPET (http://ogpet.utep.edu/OGPET/).

[17] = Chromogenic H2O2 oxidase assay / kinetic analysis on galactose
Method: as §1, §2

[18] = Chromogenic H2O2 oxidase assay on xylopentaose; details: 1 mM xylopentaose; 37° C., 15 min
Method: as §1
(§3) An additional eight mutations, identified as Y72F, Y72A, E247A, E314A, W351A, N388S, Q353N, Q384A, were created in GOOX-VN to assess the influence of these residues on the substrate selectivity of GOOX-VN. […] The specific activity of each mutant was then measured at 37° C. for 15 min using 10 mM mono-sugars and 1 mM oligosaccharides as performed for Y300A, Y300N, and W351F (Table 11).

[19] = Chromogenic H2O2 oxidase assay on xylotetraose; details: 1 mM xylotetraose; 37° C., 15 min
Method: as §1, §3

[20] = Chromogenic H2O2 oxidase assay on xylohexaose; details: 1 mM xylohexaose; 37° C., 15 min
Method: as §1, §3

[21] = 1 mM xylotriose, 37° C., 15 min
[22] = 1 mM cellobiose, 37° C., 15 min
[23] = 1 mM cellotriose, 37° C., 15 min
[24] = 10 mM galactose, 37° C., 15 min

B1: Acremonium strictum gluco-oligosaccharide oxidase GOOX-VN variant 3 W351F, SEQ ID NO. 8 (Sarocladium strictum; A38V/S388N/W351F) (protein)
chain: NSINACLAAADVEFHEEDSEGWEMDGTAFNLRVDYDPVAIAIPRSTEDIAAAVQCGLDAGVQISAKGGGHSYGSYGFGGEDGHLMLELDRMYRVSVDDDNVATIQGGARLGYTALELLDQGNRALTHGTCPAVGIGGHVLGGGYGFATHTHGLTLDWLVGATVVLADASIVHVSKTENADLFWALRGGGGGFAIVSEFEFNTFEAPEIITTYQVTTTWNRKQHVAGLKALQDWAENTMPRELSMRLEINANALNWEGNYFGNAKDLKKVLQPIMKKAGGKSTISKLVETDWYGQINTYLYGADLNITYNYDVHEYFYANSLTAPRLSDEAISAFVDYKFDNSSVRPGRGWFIQWDFHGGKNSALASHSNDETAYAHRDQLWLWQFYDNIYDYENNTSPYPESGFEFMQGFVATIEDTLPEDRKGKYFNYADTTLDKEEAQKLYWRGNLEKLQAIKAKYDPEDVFGNVVSVEPIA
Specific activity Defined substrate concentration ([1]; 10 mM xylose, 37° C., 15 min): 0.15 µmol/mg/min | Specific activity From Vmax ([1]; substrate xylose): 4.57 µmol/mg/min | Specific activity Defined substrate concentration [2, 21]: 5.95 µmol/mg/min | Specific activity From Vmax ([2]; substrate xylotriose): 7.81 µmol/mg/min | Specific activity Defined substrate concentration [3, 22]: 5.10 µmol/mg/min | Specific activity From Vmax ([3]; substrate cellobiose): 5.68 µmol/mg/min | Specific activity Defined substrate concentration ([4]; 10 mM glucose, 37° C., 15 min): 1.31 µmol/mg/min | Specific activity From Vmax ([4]; substrate glucose): 5.57 µmol/mg/min | Specific activity Defined substrate concentration ([5]; 1 mM xylobiose, 37° C., 15 min): 5.93 µmol/mg/min | Specific activity From Vmax ([5]; substrate xylobiose): 7.88 µmol/mg/min | Specific activity Defined substrate concentration ([6]; 10 mM NAG, 37° C., 15 min): 0.1 µmol/mg/min | Specific activity From Vmax ([6]; substrate NAG): 7.71 µmol/mg/min | Specific activity Defined substrate concentration [7, 23]: 4.62 µmol/mg/min | Specific activity From Vmax ([7]; substrate cellotriose): 5.20 µmol/mg/min | Km [8]: 36.12 ± 1.30 mM | Km [9]: 0.35 ± 0.01 mM | kcat [9]: 7.96 ± 0.0583 s⁻¹ | kcat/Km [9]: 23000 ± 683 M⁻¹ s⁻¹ | Km [10]: 0.31 ± 0.01 mM | kcat [10]: 7.885 ± 0.0717 s⁻¹ | kcat/Km [10]: 25700 ± 867 M⁻¹ s⁻¹ | Km [11]: 31.05 ± 1.33 mM | Km [12]: 0.08 ± 0.00 mM | kcat [12]: 5.74 ± 0.0833 s⁻¹ | kcat/Km [12]: 69000 ± 1000 M⁻¹ s⁻¹ | Km [13]: 0.11 ± 0.01 mM | kcat [13]: 5.25 ± 0.107 s⁻¹ | kcat/Km [13]: 47300 ± 4420 M⁻¹ s⁻¹ | Km [14]: 4.96 ± 0.23 mM | kcat [14]: 5.38 ± 0.0733 s⁻¹ | kcat/Km [14]: 1080 ± 51.7 M⁻¹ s⁻¹ | Specific activity Defined substrate concentration ([15]; 1 mM maltose, 37° C., 15 min): 0.84 µmol/mg/min | Specific activity From Vmax ([15]; substrate maltose): 5.33 µmol/mg/min | Activity, Deglycosylated ([16]; deglycosylated with PNGaseF (native conditions)): 3.19 nmol/min | Activity, Glycosylated ([16]; glycosylated enzyme): 3.13 nmol/min | Specific activity Defined substrate concentration [17, 24]: 1.30 µmol/mg/min | Specific activity From Vmax ([17]; substrate galactose): 6.49 µmol/mg/min

B2: Y72A: GOOX-VN mutant with Y72A substitution (protein)
chain: B1 chain with Y72A, F351W
Specific Activity of Enzyme Variants [2, 21]: 1.3 µmol/min/mg | Specific Activity of Enzyme Variants [3, 22]: 1.1 µmol/min/mg | Specific Activity of Enzyme Variants ([5]; 1 mM xylobiose, 37° C., 15 min): 0.5 µmol/min/mg | Specific Activity of Enzyme Variants [7, 23]: 2.1 µmol/min/mg | Specific Activity of Enzyme Variants [18]: 3.2 µmol/min/mg | Specific Activity of Enzyme Variants [19]: 2.5 µmol/min/mg | Specific Activity of Enzyme Variants [20]: 2.2 µmol/min/mg

B3: Q384A: GOOX-VN mutant with Q384A substitution (protein)
chain: B1 chain with F351W, Q384A
Specific Activity of Enzyme Variants [3, 22]: 0.2 µmol/min/mg | Specific Activity of Enzyme Variants [7, 23]: 0.4 µmol/min/mg | Specific Activity of Enzyme Variants [20]: 0.1 µmol/min/mg

B4: W351A: GOOX-VN mutant with W351A substitution (protein)
chain: B1 chain with F351A
Specific Activity of Enzyme Variants [2, 21]: 0.1 µmol/min/mg | Specific Activity of Enzyme Variants [3, 22]: 0.6 µmol/min/mg | Specific Activity of Enzyme Variants ([5]; 1 mM xylobiose, 37° C., 15 min): 0.1 µmol/min/mg | Specific Activity of Enzyme Variants [7, 23]: 1.1 µmol/min/mg | Specific Activity of Enzyme Variants [18]: 0.3 µmol/min/mg | Specific Activity of Enzyme Variants [19]: 0.3 µmol/min/mg | Specific Activity of Enzyme Variants [17, 24]: 0.3 µmol/min/mg | Specific Activity of Enzyme Variants [20]: 0.5 µmol/min/mg

B5: E247A: GOOX-VN mutant with E247A substitution (protein)
chain: B1 chain with E247A, F351W
Specific Activity of Enzyme Variants [2, 21]: 3.5 µmol/min/mg | Specific Activity of Enzyme Variants [3, 22]: 2.2 µmol/min/mg | Specific Activity of Enzyme Variants ([4]; 10 mM glucose, 37° C., 15 min): 0.4 µmol/min/mg | Specific Activity of Enzyme Variants ([5]; 1 mM xylobiose, 37° C., 15 min): 4.2 µmol/min/mg | Specific Activity of Enzyme Variants [7, 23]: 2.7 µmol/min/mg | Specific Activity of Enzyme Variants [18]: 5.2 µmol/min/mg | Specific Activity of Enzyme Variants [19]: 5.3 µmol/min/mg | Specific Activity of Enzyme Variants [20]: 5.1 µmol/min/mg
